Test results reported in US20040018971A1.
Values belong to the binder of their own block, whether it stands above or below them.

Columns and labels:
HLA-A*0101 (human) [1] = assay: competition with 125I-labelled probe peptide for purified HLA-A*0101, gel filtration; conditions: remark: other sources report otherwise; scale: ratio
HLA-A*0101 (human) [2] = assay: competition with a 125I-labelled probe peptide for purified HLA-A*0101, gel filtration; ratio against the A*0101 standard peptide 944.02 [..] (25 nM); conditions: remark: other sources report otherwise
HLA-A*0101 (human) [3] = assay: competition with 125I-labelled probe peptide for purified HLA-A*0101, gel filtration; ratio = IC50 of standard peptide 944.02 / IC50 of test peptide; conditions: remark: other sources report otherwise
[4] = target: HLA-A*2401 (purified HLA class I molecule) (human); assay: competition with 125I-labelled probe peptide for purified HLA, gel filtration
HLA-A*0301 (human) = assay: competition with 125I-labelled probe peptide on purified HLA-A*0301, gel filtration; ratio to standard peptide 941.12; conditions: remark: other sources report otherwise
HLA-A*1101 (human) = assay: competition with 125I-labelled probe peptide on purified HLA-A*1101, relative to standard peptide 940.06; conditions: remark: other sources report otherwise; scale: ratio
HLA-B*0702 (human) = assay: inhibition of 125I standard peptide binding to purified HLA; conditions: remark: other sources report otherwise
HLA-DR3 (human) = target: T1, HLA-DR3 (human); assay: competitive inhibition of 125I-labeled probe peptide binding to purified HLA-DR3; conditions: remark: other sources report otherwise
T1 chain 1: not shown
T1 chain 2: not shown

HLA-DRB5*0101 (human) = target: T2, HLA-DRB5*0101 (human); assay: competition with 125I-labelled standard peptide, purified HLA-DR, gel filtration; conditions: remark: other sources report otherwise
T2 chain 1: not shown
T2 chain 2: not shown

[5] = target: HLA-A*0201 (purified HLA class I molecule) (human); assay: competition with 125I-labelled standard peptide for purified HLA, gel filtration; conditions: remark: other sources report otherwise
[6] = target: HLA-A*0301 (purified HLA class I molecule) (human); assay: competition with 125I-labelled probe peptide for purified HLA-A*0301, gel filtration; conditions: remark: other sources report otherwise; scale: ratio

- relative binding ratio (HLA-A*0101 (human) [1]): 0.04
- relative binding ratio (IC50 of standard peptide / IC50 of test peptide) (HLA-A*0101 (human) [2]): 0.04
- relative binding ratio (HLA-A*0101 (human) [3]): 0.04
- relative binding ratio (IC50 of standard peptide / IC50 of test peptide) [4]: 0.0001
- relative binding ratio (IC50 of standard peptide / IC50 of test peptide) (relative binding ratio) (HLA-A*0301 (human)): 0.058
- relative binding ratio (HLA-A*1101 (human)): 0.0079
B1: HER2/neu peptide, position 773, 9 amino acids (peptide)
peptide: VMAGVGSPY

- relative binding ratio [6]: 0.0003
B5: HER2/neu peptide, position 826, 10 amino acids (…) (peptide)
peptide: CMQIAKGMSY

The next lines start with the binder.

B2: HER2/neu peptide, position 1149, 11 amino acids (peptide)
peptide: PPSPREGPLPA
- relative binding ratio (ratio to standard peptide) (HLA-B*0702 (human)): 0.45

B3: Her2/neu.958 (peptide)
peptide: CWMIDSECRPRFREL
- IC50 (HLA-DR3 (human)): < 1000 nM
- IC50 (HLA-DRB5*0101 (human)): 1330 nM

B4: HER2/neu peptide, position 484, 10 amino acids (peptide)
peptide: QLFRNPHQAL
- relative binding ratio (IC50 of standard peptide / IC50 of test peptide) [5]: 0.0003
